Reference: patent publication US10385380B2, “Personalized protease assay to measure protease activity in neoplasms” (The Regents of the University of California, priority 2014, dated 2019)
Entries after “also recorded” stand apart in the source; their conditions may differ. Read-outs that look alike come from different tables or passages of the source. Blank lines part the entries; values can stand above or below the substance they belong to. Where no end group is shown, it is not given here. [ ]: non-standard residue; d: D form. hPhe = N[C@@H](CCc1ccccc1)C(=O)O

Legend:
multiple MMPs = test: Specificity of first generation cleavable site among MMPs; type: biochemical
Description: In contrast to mRNA expression or copy number detection methods, RACPPs detect in vivo protease activity, thus bypassing the complicated interplay between transcription/translation, pro- and active forms of the enzymes, as well as the presence of inhibitors/activators etc. It was shown that RACPP uptake correlates with tumor burden^15 and with tumor characteristics corresponding to poor survival^18.
RACPPs are capable of monitoring protease activity in real time living animal models of cancer. […] To tease out the involvement of specific individual proteases involved in the various stages of cancer growth, invasion and metastasis, it was sought to identify RACPP cleavable sites that are specific for individual select proteases.

MMP-2 [1] = molecular target: T1, MMP-2 (Homo sapiens, UniProt P08253); test: Cell uptake after cleavage of linker by MMP-2; type: cell-based; settings: cleaved by MMP-2
T1 sequence (P08253 110-660): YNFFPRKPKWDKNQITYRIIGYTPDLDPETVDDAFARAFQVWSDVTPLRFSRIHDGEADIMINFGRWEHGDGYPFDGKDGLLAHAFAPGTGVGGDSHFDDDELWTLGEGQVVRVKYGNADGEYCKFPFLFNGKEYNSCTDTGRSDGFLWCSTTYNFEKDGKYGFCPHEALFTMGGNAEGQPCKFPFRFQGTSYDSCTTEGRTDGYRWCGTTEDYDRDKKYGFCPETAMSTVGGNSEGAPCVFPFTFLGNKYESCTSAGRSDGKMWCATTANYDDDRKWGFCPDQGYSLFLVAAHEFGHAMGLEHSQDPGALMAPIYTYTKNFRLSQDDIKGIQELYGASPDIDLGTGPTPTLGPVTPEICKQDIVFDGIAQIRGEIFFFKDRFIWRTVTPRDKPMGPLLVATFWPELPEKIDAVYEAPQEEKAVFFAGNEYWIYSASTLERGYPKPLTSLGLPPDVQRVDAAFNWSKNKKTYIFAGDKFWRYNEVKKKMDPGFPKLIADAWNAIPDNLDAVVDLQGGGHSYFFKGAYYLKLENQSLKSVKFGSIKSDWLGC
Description: For example, a linker X that includes the amino-acid sequence PLGLAG (SEQ ID NO: 1) may be cleaved by the metalloproteinase enzyme MMP-2 (a major MMP in cancer and inflammation). Cleavage of such a linker X occurs between the central G and L residues, causing cell uptake to increase by 10 to 20-fold. A great deal is known about the substrate preferences of different MMPs, so that linkers X may be designed that are able to bias X to be preferentially sensitive to particular subclasses of MMPs, or to individual members of the large MMP family of proteinases. For example, in some embodiments, linkers X designed to be cleaved by membrane-anchored MMPs are particularly employed because their activity remains localized to the outer surface of the expressing cell. In alternative embodiments, linkers X designed to be cleaved by a soluble secreted MMP are employed where diffusion of cargo C away from the exact location of cleavage may be desired, thereby increasing the spatial distribution of the cargo. Other linkers X cleavable by other MMPs are discussed throughout the application.

MMP-14 = MMP-14 (Homo sapiens, UniProt P50281); test: Cleavage of ACPP substrates by purified MMP-14; type: biochemical; settings: versus MMP-2 and MMP-9
Description: (§1) FIG. 7 describes selectivity for substrates for MMP2, 9 and 14 (1 uM peptide 20 nM enzyme). A) MT1 selective RSHPHfeTLY (SEQ ID NO: 19).
(§2) FIG. 8A, FIG. 8B and FIG. 8C describe selectivity for substrate cut with MMP-2, MMP9 and MMP-14.
(§3) To generate new substrates for MMPs, amino acids were substituted at key position at and near the cleavage site based on the following rule derived by recent work by Ratnikov et al^26 that the amino acid at a certain position must improve cleavage by the specific enzyme and reduce cleavage by other related enzymes. For increased specificity, an amino acid should be red for the enzyme of interest compared green for the other enzymes at the same substitution position (FIG. 36A). These substrates will be tested by treating 5 μM peptide with 20 nM of each enzyme for 2 hours and analyse by gel electrophoresis.
(§4) FAM/Cy5 ratiometric versions of RACPPs with these sequences were made and tested to confirm selectivity. The preferred form Cy5/Cy7 ratiometric versions for in vivo testing with a pegylated carrier to help with solubility is currently being synthesized. For MMP 11 a similar approach will be adopted in finding selective substrates.^26.

MT2-MMP = MT2-MMP (Homo sapiens, UniProt P51511); test: Cleavage of RS-(Cit)-G-(homoF)-YLY derivatives by MT2-MMP; type: biochemical
MMP9 = MMP9 (Homo sapiens, UniProt P14780); test: Cleavage of ACPP substrates by purified MMP-9; type: biochemical; settings: versus MMP-2 and MMP-14
Description: as §1, §2, §3, §4

MMP-2 [2] = molecular target: T1, MMP-2; test: Cleavage of ACPP substrates by purified MMP-2; type: biochemical; settings: versus MMP-9 and MMP-14
Description: as §1, §2, §3, §4

tPA = tPA (Homo sapiens, UniProt P00750); test: Screen of protease substrates for cleavage by tPA; type: biochemical; settings: compared with uPA
Description: (§5) To generate novel RACPP species that are selective for uPA, a set of protease substrates were screened that were diverse and likely cleaved by serine protease in that they contain either a lysine or arginine residue flanked by diverse amino acids. […] Several other substrates that were reported to be cleaved by uPA were also tested but were not cleaved possible because the constrained structure of the substrate within the context of an ACPP.

[3] = molecular target: urokinase plasminogen activator (uPA) (Homo sapiens, UniProt P00749); test: Screen of protease substrates for cleavage by uPA; type: biochemical; settings: substrate in the context of an ACPP
Description: as §5
To generate novel RACPP species that are specific for uPA, a set of protease substrates were screened that were diverse and likely cleaved by serine protease in that they contain either a lysine or arginine residue flanked by diverse amino acids.

Chain of MMP9 (P14780 94-707): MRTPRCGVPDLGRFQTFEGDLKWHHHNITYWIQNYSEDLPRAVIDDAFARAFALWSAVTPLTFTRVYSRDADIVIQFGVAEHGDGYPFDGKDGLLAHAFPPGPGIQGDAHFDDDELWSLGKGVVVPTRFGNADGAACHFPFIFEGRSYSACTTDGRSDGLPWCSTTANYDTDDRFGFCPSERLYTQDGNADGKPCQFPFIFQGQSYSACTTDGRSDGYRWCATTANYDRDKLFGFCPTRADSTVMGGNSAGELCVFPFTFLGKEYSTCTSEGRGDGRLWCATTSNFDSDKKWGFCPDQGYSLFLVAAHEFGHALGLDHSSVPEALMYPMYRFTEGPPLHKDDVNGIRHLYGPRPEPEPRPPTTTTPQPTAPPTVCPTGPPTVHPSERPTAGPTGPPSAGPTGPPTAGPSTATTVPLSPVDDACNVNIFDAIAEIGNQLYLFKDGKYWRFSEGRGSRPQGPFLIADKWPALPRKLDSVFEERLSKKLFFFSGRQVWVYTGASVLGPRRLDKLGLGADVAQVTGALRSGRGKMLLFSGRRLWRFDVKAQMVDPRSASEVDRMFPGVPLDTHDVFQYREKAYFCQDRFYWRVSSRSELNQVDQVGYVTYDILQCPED
Chain of MT2-MMP (P51511 132-669, species assumed): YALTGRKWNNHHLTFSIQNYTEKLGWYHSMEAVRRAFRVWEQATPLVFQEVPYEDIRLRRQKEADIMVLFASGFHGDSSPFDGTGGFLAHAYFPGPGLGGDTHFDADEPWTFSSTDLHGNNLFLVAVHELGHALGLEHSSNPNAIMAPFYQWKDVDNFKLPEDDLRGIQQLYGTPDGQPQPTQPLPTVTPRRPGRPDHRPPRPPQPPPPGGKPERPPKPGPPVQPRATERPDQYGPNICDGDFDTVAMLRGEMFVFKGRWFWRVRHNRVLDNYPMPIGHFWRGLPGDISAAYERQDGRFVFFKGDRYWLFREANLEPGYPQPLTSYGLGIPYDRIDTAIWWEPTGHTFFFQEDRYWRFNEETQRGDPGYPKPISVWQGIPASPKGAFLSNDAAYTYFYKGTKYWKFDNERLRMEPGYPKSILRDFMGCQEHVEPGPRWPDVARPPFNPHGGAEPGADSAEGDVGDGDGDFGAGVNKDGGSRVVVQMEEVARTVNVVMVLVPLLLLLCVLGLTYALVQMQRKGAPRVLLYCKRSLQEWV
Chain of tPA (P00750 36-562, species assumed): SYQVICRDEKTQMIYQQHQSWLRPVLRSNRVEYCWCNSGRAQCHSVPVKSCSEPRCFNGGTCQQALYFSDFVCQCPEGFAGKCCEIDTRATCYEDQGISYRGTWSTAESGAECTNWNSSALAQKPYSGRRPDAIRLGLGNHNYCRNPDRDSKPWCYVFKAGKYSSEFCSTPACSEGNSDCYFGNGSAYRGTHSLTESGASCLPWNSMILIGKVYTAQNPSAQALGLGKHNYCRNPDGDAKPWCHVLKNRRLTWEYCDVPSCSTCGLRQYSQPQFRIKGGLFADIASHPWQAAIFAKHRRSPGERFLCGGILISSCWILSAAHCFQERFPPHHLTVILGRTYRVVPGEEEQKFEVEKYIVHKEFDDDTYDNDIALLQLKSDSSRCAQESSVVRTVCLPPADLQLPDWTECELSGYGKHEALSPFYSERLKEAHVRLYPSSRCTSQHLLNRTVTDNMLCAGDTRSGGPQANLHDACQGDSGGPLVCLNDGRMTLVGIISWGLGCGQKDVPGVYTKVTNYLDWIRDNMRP

increase of cell uptake after cleavage between the central G and L residues (MMP-2 [1]): 10 to 20 fold
Substance: PLGLAG (cleavable linker)

cleavage by / selectivity for MMP-14 (MT1-MMP) (MMP-14): MMP14 selective
Substance: RS-(Cit)-G-(homoF)-YLY

cleavage by / selectivity for MMP-14 (MT1-MMP) (MMP-14): highly selective and efficiently cleaved
cleavage by / selectivity for MMP-14 (MT1-MMP) (MMP-14; listed as RSHG(Hfe)FLY): selective
Substance: RSHG-(homoF)-FLY (RSHG[hPhe]FLY)

cleavage by / selectivity for MMP9 (MMP9): MMP9 selective
Substance: SNPYG-Y (SNPYGY; cleavable linker)

cleavage by / selectivity for MMP9 (MMP9): MMP9 selective
cleavage by / selectivity for MMP9 (MMP9; listed as SNPYKY): selective
Substance: SNPYK-Y (SNPYKY; cleavable linker)

cleavage by / selectivity for MMP-2 (MMP-2 [2]): MMP-2 selective
Substance: TLSE-LH (TLSELH; cleavable linker)

cleavage by tPA (tPA): to a lesser extent
Substance: YGRAAA (cleavable linker)
cleavage by uPA [3]: efficiently cleaved; also recorded: increase in Cy5/Cy7 signal ratio

The remaining lines, values behind:

Substance: PLGC(Me)AG
cleavage by multiple MMPs (lack of specificity) (multiple MMPs): cut by multiple MMPs
cleavage by multiple MMPs (lack of specificity) (multiple MMPs; listed as PLGC(me)AG): cleaved by multiple proteases

Substance: RS-Q-G-(homoF)-YLY (RSQG[hPhe]YLY)
cleavage by MT2-MMP (MT2-MMP): significant cleavage

Substance: RSHP[hPhe]TLY
cleavage by / selectivity for MMP-14 (MT1-MMP) (MMP-14): MMP14 selective
cleavage by / selectivity for MMP-14 (MT1-MMP) (MMP-14; listed as RSHPHfeTLY): MT1 selective

Substance: TIAH/LH
cleavage by / selectivity for MMP-2 (MMP-2 [2]): selectively cleaved

Substance: TIAHLA (cleavable linker)
cleavage by / selectivity for MMP-2 (MMP-2 [2]): MMP2 selective
